Experimental data from the Immune Epitope Database (IEDB).

How the values were obtained:
HLA-A*02:01 [1] = assay: IEDB peptide-MHC binding, purified MHC/direct/fluorescence; filed as Kd, often an IC50 or EC50 that approximates it; ≥ and ≤ were set here for values at or beyond the usual limits of such assays
HLA-B*08:02 = assay: as above
HLA-A*24:02 = assay: as above
HLA-B*46:01 = assay: as above
HLA-A*69:01 = assay: as above
HLA-B*07:02 [2] = assay: as above
HLA-B*58:01 = assay: as above
HLA-B*15:01 = assay: as above
HLA-B*18:01 [3] = assay: as above
HLA-B*40:01 [4] = assay: as above
HLA-A*01:01 [5] = assay: as above
HLA-A*03:01 [6] = assay: as above
HLA-B*44:02 [7] = assay: as above
HLA-B*08:01 [8] = assay: as above
HLA-B*27:05 = assay: as above
HLA-B*15:09 = assay: as above
HLA-A*24:03 = assay: as above; conditions: source organism: Influenza A virus (A/camel/Mongolia/1982(H1N1))
HLA-A*02:01 [9] = assay: IEDB peptide-MHC binding, purified MHC/competitive/radioactivity; filed as Kd, often an IC50 or EC50 that approximates it; ≥ and ≤ were set here for values at or beyond the usual limits of such assays; conditions: source organism: Hepacivirus hominis
HLA-A*68:01 = assay: as above; conditions: source organism: Hepacivirus hominis
HLA-B*35:01 = assay: as above; conditions: source organism: Hepacivirus hominis
HLA-A*11:01 [10] = assay: as above; conditions: source organism: Hepacivirus hominis
HLA-B*07:02 [11] = assay: as above; conditions: source organism: Hepacivirus hominis
HLA-A*02:06 = assay: as above; conditions: source organism: Hepacivirus hominis
HLA-A*68:02 = assay: as above; conditions: source organism: Hepacivirus hominis
HLA-B*18:01 [12] = assay: as above; conditions: source organism: Hepacivirus hominis
HLA-B*40:01 [13] = assay: as above; conditions: source organism: Hepacivirus hominis
HLA-A*02:03 = assay: as above; conditions: source organism: Hepacivirus hominis
HLA-B*40:02 = assay: as above; conditions: source organism: Hepacivirus hominis
HLA-A*01:01 [14] = assay: as above; conditions: source organism: Hepacivirus hominis
HLA-A*31:01 [15] = assay: as above; conditions: source organism: Hepacivirus hominis
HLA-B*44:03 = assay: as above; conditions: source organism: Hepacivirus hominis
HLA-B*51:01 = assay: as above; conditions: source organism: Hepacivirus hominis
HLA-A*03:01 [16] = assay: as above; conditions: source organism: Hepacivirus hominis
HLA-A*33:01 = assay: as above; conditions: source organism: Hepacivirus hominis
HLA-B*44:02 [17] = assay: as above; conditions: source organism: Hepacivirus hominis
HLA-B*08:01 [18] = assay: as above; conditions: source organism: Hepacivirus hominis
HLA-B*53:01 = assay: as above; conditions: source organism: Hepacivirus hominis
HLA-B*54:01 = assay: as above; conditions: source organism: Hepacivirus hominis
HLA-A*02:02 = assay: as above; conditions: source organism: Hepacivirus hominis
HLA-A*26:01 = assay: IEDB peptide-MHC binding, purified MHC/direct/fluorescence; filed as Kd, often an IC50 or EC50 that approximates it; ≥ and ≤ were set here for values at or beyond the usual limits of such assays
HLA-A*31:01 [19] = assay: as above
HLA-A*11:01 [20] = assay: as above
[21] = source organism: Giardia lamblia ATCC 50803
[22] = source organism: Influenza A virus (A/camel/Mongolia/1982(H1N1))
[23] = source organism: Influenza A virus H3N2
[24] = source organism: Influenza A virus (A/Puerto Rico/8/34/Mount Sinai(H1N1))
[25] = source organism: Vibrio parahaemolyticus
[26] = source organism: Vibrio vulnificus CMCP6
[27] = source organism: Influenza A virus (A/chicken/Hunan/fg/2004(H5N1))
[28] = source organism: Influenza B virus (B/Chiba/447/98)

IVKYKQYLK
Kd (HLA-A*02:01 [1]; [21]): ≥ 20 µM | Kd (HLA-B*08:02; [21]): ≥ 20 µM | Kd (HLA-A*24:02; [21]): ≥ 20 µM | Kd (HLA-B*46:01; [21]): ≥ 20 µM | Kd (HLA-A*69:01; [21]): ≥ 20 µM | Kd (HLA-B*07:02 [2]; [21]): ≥ 20 µM | Kd (HLA-B*58:01; [21]): ≥ 20 µM | Kd (HLA-B*15:01; [21]): ≥ 20 µM | Kd (HLA-B*18:01 [3]; [21]): ≥ 20 µM | Kd (HLA-B*40:01 [4]; [21]): ≥ 20 µM | Kd (HLA-A*01:01 [5]; [21]): ≥ 20 µM | Kd (HLA-A*03:01 [6]; [21]): 81.5 nM | Kd (HLA-B*44:02 [7]; [21]): ≥ 20 µM | Kd (HLA-B*08:01 [8]; [21]): ≥ 20 µM | Kd (HLA-B*27:05; [21]): ≥ 20 µM

KFFPSSSYR
Kd (HLA-A*02:01 [1]; [22]): ≥ 20 µM | Kd (HLA-B*15:09; [23]): ≥ 20 µM | Kd (HLA-A*24:02; [22]): ≥ 20 µM | Kd (HLA-A*24:03): ≥ 20 µM | Kd (HLA-B*46:01; [22]): ≥ 20 µM | Kd (HLA-A*69:01; [22]): ≥ 20 µM | Kd (HLA-B*07:02 [2]; [22]): ≥ 20 µM | Kd (HLA-B*58:01; [22]): ≥ 20 µM | Kd (HLA-B*15:01; [22]): ≥ 20 µM | Kd (HLA-B*18:01 [3]; [22]): ≥ 20 µM | Kd (HLA-B*40:01 [4]; [22]): ≥ 20 µM | Kd (HLA-A*01:01 [5]; [22]): ≥ 20 µM | Kd (HLA-A*03:01 [6]; [24]): 184 nM | Kd (HLA-B*44:02 [7]; [22]): ≥ 20 µM | Kd (HLA-B*08:01 [8]; [22]): ≥ 20 µM | Kd (HLA-B*27:05; [22]): ≥ 20 µM

RPALVFDITK
Kd (HLA-A*02:01 [9]): ≥ 37.4 µM | Kd (HLA-A*68:01): 133 nM | Kd (HLA-B*35:01): ≥ 27.4 µM | Kd (HLA-A*11:01 [10]): 796 nM | Kd (HLA-B*07:02 [11]): 222 nM | Kd (HLA-A*02:06): 12.3 µM | Kd (HLA-A*68:02): ≥ 69.8 µM | Kd (HLA-B*18:01 [12]): ≥ 70.5 µM | Kd (HLA-B*40:01 [13]): ≥ 69.6 µM | Kd (HLA-A*02:03): ≥ 70.4 µM | Kd (HLA-B*40:02): ≥ 70.8 µM | Kd (HLA-A*01:01 [14]): ≥ 51.3 µM | Kd (HLA-A*31:01 [15]): ≥ 70 µM | Kd (HLA-B*44:03): 15.6 µM | Kd (HLA-B*51:01): ≥ 69.6 µM | Kd (HLA-A*03:01 [16]): ≥ 29.7 µM | Kd (HLA-A*33:01): ≥ 70 µM | Kd (HLA-B*44:02 [17]): ≥ 70.2 µM | Kd (HLA-B*08:01 [18]): ≥ 49.8 µM | Kd (HLA-B*53:01): 18.9 µM | Kd (HLA-B*54:01): 11.2 µM | Kd (HLA-A*02:02): ≥ 70 µM

ASEELMDKY
Kd (HLA-A*02:01 [1]; [25]): ≥ 20 µM | Kd (HLA-B*08:02; [26]): ≥ 20 µM | Kd (HLA-B*15:09; [26]): ≥ 20 µM | Kd (HLA-A*24:02; [25]): ≥ 20 µM | Kd (HLA-B*46:01; [25]): ≥ 20 µM | Kd (HLA-A*69:01; [25]): ≥ 20 µM | Kd (HLA-B*07:02 [2]; [25]): ≥ 20 µM | Kd (HLA-B*58:01; [25]): ≥ 20 µM | Kd (HLA-B*15:01; [25]): ≥ 20 µM | Kd (HLA-B*40:01 [4]; [25]): ≥ 20 µM | Kd (HLA-A*26:01; [26]): ≥ 20 µM | Kd (HLA-A*01:01 [5]; [25]): 0.0272 µM | Kd (HLA-A*31:01 [19]; [25]): ≥ 20 µM | Kd (HLA-A*03:01 [6]; [25]): ≥ 20000 nM | Kd (HLA-B*44:02 [7]; [25]): ≥ 20 µM | Kd (HLA-B*27:05; [25]): ≥ 20 µM

EKFFPSSSY
Kd (HLA-A*02:01 [1]; [22]): ≥ 20 µM | Kd (HLA-B*08:02; [23]): ≥ 20 µM | Kd (HLA-A*24:02; [22]): ≥ 20 µM | Kd (HLA-A*11:01 [20]; [22]): ≥ 20 µM | Kd (HLA-A*69:01; [22]): ≥ 20 µM | Kd (HLA-B*07:02 [2]; [22]): ≥ 20 µM | Kd (HLA-B*58:01; [22]): ≥ 20 µM | Kd (HLA-B*15:01; [24]): 1.12 µM | Kd (HLA-A*01:01 [5]; [22]): ≥ 20 µM | Kd (HLA-A*31:01 [19]; [22]): ≥ 20 µM | Kd (HLA-A*03:01 [6]; [22]): ≥ 20000 nM | Kd (HLA-B*08:01 [8]; [22]): ≥ 20 µM | Kd (HLA-B*27:05; [22]): ≥ 20 µM

SVFHEHIFK
Kd (HLA-A*02:01 [1]; [21]): ≥ 20 µM | Kd (HLA-A*24:02; [21]): ≥ 20 µM | Kd (HLA-A*11:01 [20]; [21]): 0.0092 µM | Kd (HLA-A*69:01; [21]): ≥ 20 µM | Kd (HLA-B*07:02 [2]; [21]): ≥ 20 µM | Kd (HLA-B*58:01; [21]): ≥ 20 µM | Kd (HLA-B*15:01; [21]): ≥ 20 µM | Kd (HLA-B*40:01 [4]; [21]): ≥ 20 µM | Kd (HLA-A*26:01; [21]): ≥ 20 µM | Kd (HLA-A*01:01 [5]; [21]): ≥ 20 µM | Kd (HLA-A*31:01 [19]; [21]): 0.134 µM | Kd (HLA-A*03:01 [6]; [21]): 154 nM | Kd (HLA-B*44:02 [7]; [21]): ≥ 20 µM | Kd (HLA-B*27:05; [21]): ≥ 20 µM

YSHGTGTGY
Kd (HLA-A*02:01 [1]; [27]): ≥ 20 µM | Kd (HLA-B*08:02; [28]): ≥ 20 µM | Kd (HLA-A*24:02; [27]): ≥ 20 µM | Kd (HLA-A*11:01 [20]; [27]): ≥ 20 µM | Kd (HLA-A*69:01; [27]): ≥ 20 µM | Kd (HLA-B*07:02 [2]; [27]): ≥ 20 µM | Kd (HLA-B*58:01; [27]): 0.905 µM | Kd (HLA-B*15:01; [24]): 0.099 µM | Kd (HLA-B*40:01 [4]; [27]): ≥ 20 µM | Kd (HLA-A*26:01; [28]): 0.02 µM | Kd (HLA-A*31:01 [19]; [27]): ≥ 20 µM | Kd (HLA-A*03:01 [6]; [27]): ≥ 20000 nM | Kd (HLA-B*08:01 [8]; [27]): ≥ 20 µM | Kd (HLA-B*27:05; [27]): ≥ 20 µM
